Experimental data: the supplement of paper PMC7125110
± gives the standard error. For part of these data: This sample holds only a part of the variants without activity.

B1: glmS ribozyme (parent)
chain: AUAAAAGCGCCAGAACUACAGAAAUGUAGUUGACGAGGAGGAGGUUUAUCGAAUUUUCGGCGGAUGCCUCCAAA

Assays:
Settings in all cases: with glucosamine-6-phosphate
[1] = variants of: B1; assay: kcat; higher = faster cleavage; RNA array
In short: (§1)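 Weighted Michaelis–Menten fits across concentrations supplied kcat and KM, based on kobs from one- or two-exponential decay fits to normalised per-tile medians. The data came from barcoded ribozyme variants transcribed in situ by E. coli RNA polymerase on sequenced MiSeq chips and tracked at 37 °C by a hybridised Cy3 probe. Glucosamine-6-phosphate (40 μM to 10 mM) in HEPES/KCl/Mg(OAc)2 buffer was flowed in.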

[2] = variants of: B1; assay: self-cleavage kobs at 40 uM GlcN6P; higher = faster cleavage; RNA array
In short: as §1

[3] = variants of: B1; assay: KM; higher = weaker cofactor use; RNA array
In short: as §1

[4] = variants of: B1; assay: self-cleavage kobs at 2500 uM GlcN6P; higher = faster cleavage; RNA array
In short: as §1

[5] = variants of: B1; assay: self-cleavage kobs at 10000 uM GlcN6P; higher = faster cleavage; RNA array
In short: as §1

[6] = variants of: B1; assay: self-cleavage kobs at 160 uM GlcN6P; higher = faster cleavage; RNA array
In short: as §1

[7] = variants of: B1; assay: self-cleavage kobs at 640 uM GlcN6P; higher = faster cleavage; RNA array
In short: as §1

Variant | kcat [1] | self-cleavage kobs at 40 uM GlcN6P [2] | KM [3] | self-cleavage kobs at 2500 uM GlcN6P [4] | self-cleavage kobs at 10000 uM GlcN6P [5] | self-cleavage kobs at 160 uM GlcN6P [6] | self-cleavage kobs at 640 uM GlcN6P [7]
C10G C67U | < 1e-05 s⁻¹ | < 1e-05 s⁻¹ |  |  |  |  | 
U57C C68U | 6e-05 ± 5.6e-07 s⁻¹ |  | 1210 ± 64 µM | 3.96e-05 ± 1.4e-05 s⁻¹ | 5.36e-05 ± 6e-06 s⁻¹ |  | 
U49A U55G | 1.38e-05 ± 6.5e-06 s⁻¹ |  |  |  |  |  | 
G32A G44C C67U | 0.000144 ± 5.9e-05 s⁻¹ | < 1e-05 s⁻¹ |  | 0.000148 ± 4.6e-05 s⁻¹ | 0.00011 ± 2.3e-05 s⁻¹ |  | 
U31A A42G | 0.0179 ± 0.0037 s⁻¹ | 0.000495 ± 7.3e-05 s⁻¹ | 1430 ± 370 µM | 0.00902 ± 0.0026 s⁻¹ | 0.0188 ± 0.0042 s⁻¹ | 0.00191 ± 0.00054 s⁻¹ | 
C50U C58A | < 1e-05 s⁻¹ |  |  | < 1e-05 s⁻¹ | < 1e-05 s⁻¹ |  | 
A15C U46A | 0.000358 ± 0.00016 s⁻¹ |  |  | 0.000152 ± 3.8e-05 s⁻¹ | 0.000416 ± 9.4e-05 s⁻¹ |  | 0.000102 ± 2.1e-05 s⁻¹
G13C U31C | 0.0015 ± 0.00033 s⁻¹ | 3.14e-05 ± 1e-05 s⁻¹ | 3460 ± 1200 µM | 0.000748 ± 0.00013 s⁻¹ | 0.00109 ± 0.00014 s⁻¹ | 0.000104 ± 4.3e-05 s⁻¹ | 0.000211 ± 2.9e-05 s⁻¹
A42G A53U | 0.0339 ± 0.012 s⁻¹ | 0.000764 ± 0.00011 s⁻¹ | 2240 ± 990 µM | 0.0159 ± 0.0028 s⁻¹ | 0.0373 ± 0.009 s⁻¹ | 0.00186 ± 0.00035 s⁻¹ | 0.0076 ± 0.0013 s⁻¹
G13C A14U C68U | 1.07e-05 ± 1.2e-06 s⁻¹ |  |  |  |  |  | 
A15G C16G C71G | 0.000103 ± 1.4e-05 s⁻¹ |  |  | 0.000115 ± 4e-05 s⁻¹ | 9.34e-05 ± 2.6e-05 s⁻¹ |  | 
C68A C70U | 1.14e-05 ± 4.1e-06 s⁻¹ |  |  |  |  |  | 
A42G U49G | 0.00144 ± 0.00033 s⁻¹ | 5.36e-05 ± 2.3e-05 s⁻¹ | 3190 ± 1100 µM | 0.000609 ± 9.7e-05 s⁻¹ | 0.0011 ± 0.00017 s⁻¹ | 5.71e-05 ± 1.4e-05 s⁻¹ | 0.000275 ± 4.4e-05 s⁻¹
U46G C58G | 2.68e-05 ± 1.4e-06 s⁻¹ |  | 892 ± 260 µM |  | 2.44e-05 ± 1.2e-05 s⁻¹ | < 1e-05 s⁻¹ | 
U46G C58A | 0.000164 ± 4e-05 s⁻¹ | < 1e-05 s⁻¹ |  | 3.08e-05 ± 1.2e-05 s⁻¹ | 8.21e-05 ± 1.1e-05 s⁻¹ |  | 
U47C C67G | 0.000337 ± 4.8e-05 s⁻¹ |  | 1740 ± 450 µM | 0.000239 ± 3.4e-05 s⁻¹ | 0.000279 ± 3.1e-05 s⁻¹ | 3.84e-05 ± 8.3e-06 s⁻¹ | 8.28e-05 ± 9.1e-06 s⁻¹
G41A U46G C70U | 0.00726 ± 0.0013 s⁻¹ | 0.000436 ± 0.0001 s⁻¹ | 620 ± 170 µM |  | 0.00749 ± 0.002 s⁻¹ |  | 0.00452 ± 0.0018 s⁻¹
A14U G35U | < 1e-05 s⁻¹ |  |  | < 1e-05 s⁻¹ |  | < 1e-05 s⁻¹ | 
